Where only a bound is given, the exact number is not on record here.

The assay deals with gramicidin A (Bacillus brevis). Put plainly: single-channel electrophysiology.

In the case of gramicidin A (peptide), the channel (dimer) lifetime was below 3 ms.
